Measurements from the supplement of paper PMC7877785.
± gives the uncertainty stated by the source.

Assay: self-splicing fitness, log relative to wild type (ln ratio); higher = more splicing; Tetrahymena group I intron in knt gene, E. coli kanamycin selection, DiMSum; sequences stand for … in CUCUCU…GGAGGGAAAAGUUAUCAGGCAUGCACCUGGUAGCUAGUCUUUAAACCAAUAGAUUGCAUCGGUUUAAAAGGCAAGACCGUCAAAUUGCGGGAAAGGGGUCAACAGCCGUUCAGUACCAAGUCUCAGGGGAAACUUUGAGAUGGCCUUGCAAAGGGUAUGGUAAUAAGCUGACGGACAUGGUCCUAACCACGCAGCCAAGUCCUAAGUCAACAGAUCUUCUGUUGAUAUGGAUGCAGUUCACAGACUAAAUGUCGGUCGGGGAAGAUGUAUUCUUCUCAUAAGAUAUAGUCGGACCUCUCCUUAAUGGGAGCUAGCGGAUGAAGUGAUGCAACACUGGAGCCGCUGGGAACUAAUUUGUAUGCGAAAGUAUAUUGAUUAGUUUUGGAGUACUCGUGGUCG
How it was run: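 Colonies from six replicate transformations of E. coli BL21(DE3) were pooled and amplicon-sequenced on an Illumina HiSeq 2500. The library placed an intron with all eight P1ex-region nucleotides randomised inside the knt kanamycin-resistance gene on pET-22b(+), and cells grew overnight at 37°C or 30°C on LB agar with or without 25 μg/mL kanamycin (plus 100 μg/mL carbenicillin, 50 μM IPTG, 0.2% rhamnose). Fitness is the DiMSum error-weighted combination of wild-type-normalised replicate fold changes, kanamycin versus none.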

Sequence | self-splicing fitness (ln) (30 °C) | self-splicing fitness (ln) (37 °C)
ACGCAGCAAUAUUACGACUG | -2.72 ± 0.14 | -2.02 ± 0.2
ACGCAGCAAUAUUACGAUUC | -2.28 ± 0.085 | -1.43 ± 0.096
ACGCAGCAAUAUUACGCACA | -0.862 ± 0.11 | -0.0125 ± 0.12
ACGCAGCAAUAUUACGCCGG | -2 ± 0.11 | -0.692 ± 0.15
ACGCAGCAAUAUUACGCGCG | -2.59 ± 0.18 | -2.07 ± 0.2
ACGCAGCAAUAUUACGCGGA | -2.95 ± 0.22 | -1.87 ± 0.17
ACGCAGCAAUAUUACGCGGU | -4.57 ± 0.19 | -2.37 ± 0.12
ACGCAGCAAUAUUACGCGUA | -3.63 ± 0.23 | -2.1 ± 0.15
ACGCAGCAAUAUUACGGACG | -1.31 ± 0.05 | -0.318 ± 0.07
ACGCAGCAAUAUUACGGAUG | -3.06 ± 0.15 | -1.67 ± 0.14
ACGCAGCAAUAUUACGGAUU | -2.19 ± 0.08 | -0.83 ± 0.085
ACGCAGCAAUAUUACGGCCC | -0.00164 ± 0.16 | 0.0347 ± 0.18
ACGCAGCAAUAUUACGGGCA | -1.08 ± 0.081 | -0.293 ± 0.094
ACGCAGCAAUAUUACGGUAG | -3.56 ± 0.17 | -2.94 ± 0.19
ACGCAGCAAUAUUACGGUCU | -0.587 ± 0.049 | 0.0141 ± 0.056
ACGCAGCAAUAUUACGGUUU | -0.937 ± 0.054 | -0.076 ± 0.083
ACGCAGCAAUAUUACGUCGC | -1.16 ± 0.12 | -2.45 ± 0.22
ACGCAGCAAUAUUACGUGAG | -1.19 ± 0.056 | -0.552 ± 0.07
ACGCAGCAAUAUUACGUGAU | -1.78 ± 0.039 | -0.783 ± 0.055
ACGCAGCAAUAUUACGUGGA | -3.14 ± 0.14 | -2.37 ± 0.14
ACGCAGCAAUAUUACGUGGC | -2.88 ± 0.14 | -2.26 ± 0.17
ACGCAGCAAUAUUACGUUGC | -2.7 ± 0.1 | -2.75 ± 0.16
ACGGAGCAAUAUUACGAAGG | -3.68 ± 0.21 | -2.7 ± 0.27
ACGGAGCAAUAUUACGACAG | -2.34 ± 0.26 | -2.62 ± 0.34

Sequence | self-splicing fitness (ln) (30 °C) | self-splicing fitness (ln) (37 °C)
ACGGAGCAAUAUUACGACCA | -3.73 ± 0.4 | -1.08 ± 0.24
ACGGAGCAAUAUUACGACGA | -1.49 ± 0.1 | -0.442 ± 0.13
ACGGAGCAAUAUUACGACGU | -2.27 ± 0.17 | -1.56 ± 0.23
ACGGAGCAAUAUUACGAGAG | -2.06 ± 0.34 | -2.22 ± 0.45
ACGGAGCAAUAUUACGAGUG |  | -2.8 ± 0.38
ACGGAGCAAUAUUACGCAAU | -2.81 ± 0.24 | -3.02 ± 0.43
ACGGAGCAAUAUUACGCCAG | -4.18 ± 0.43 | -1.11 ± 0.39
ACGGAGCAAUAUUACGCGAC | -2.45 ± 0.21 | -2.55 ± 0.41
ACGGAGCAAUAUUACGCUUA | -2.71 ± 0.17 | -1.03 ± 0.11
ACGGAGCAAUAUUACGCUUC | -2.92 ± 0.21 | -2.81 ± 0.23
ACGGAGCAAUAUUACGCUUU | -4.74 ± 0.38 | -1.98 ± 0.17
ACGGAGCAAUAUUACGGAGC | -1.67 ± 0.34 | 
ACGGAGCAAUAUUACGGGAU | -1.84 ± 0.14 | -1.83 ± 0.2
ACGGAGCAAUAUUACGGGGG |  | -1.58 ± 0.29
ACGGAGCAAUAUUACGUCUC | -4.93 ± 0.32 | -1.94 ± 0.15
ACGGAGCAAUAUUACGUUAG | -2.74 ± 0.18 | -2.5 ± 0.33
ACGGAGCAAUAUUACGUUCA | -1.94 ± 0.18 | -0.749 ± 0.13
ACGUAGCAAUAUUACGAAAA | -2.5 ± 0.21 | -1.58 ± 0.19
ACGUAGCAAUAUUACGAAUC | -4.01 ± 0.3 | -2.74 ± 0.3
ACGUAGCAAUAUUACGAAUU | -1.42 ± 0.087 | -0.778 ± 0.11
ACGUAGCAAUAUUACGAGAU | -2.82 ± 0.14 | -2.23 ± 0.19
ACGUAGCAAUAUUACGAGUA | -3.15 ± 0.21 | -1.07 ± 0.12
ACGUAGCAAUAUUACGAGUU | -4.04 ± 0.17 | -1.3 ± 0.13
ACGUAGCAAUAUUACGAUCU | -0.0721 ± 0.051 | 0.356 ± 0.065

Sequence | self-splicing fitness (ln) (30 °C) | self-splicing fitness (ln) (37 °C)
ACGUAGCAAUAUUACGAUGA | -0.81 ± 0.091 | -0.268 ± 0.11
ACGUAGCAAUAUUACGCCCG | -0.224 ± 0.13 | -0.474 ± 0.17
ACGUAGCAAUAUUACGCGAA | -1.46 ± 0.16 | -0.935 ± 0.18
ACGUAGCAAUAUUACGCUAU | -4.59 ± 0.34 | -3.11 ± 0.35
ACGUAGCAAUAUUACGGAGU | -3.1 ± 0.1 | -1.18 ± 0.079
ACGUAGCAAUAUUACGGAUA | -2.48 ± 0.15 | -0.584 ± 0.11
ACGUAGCAAUAUUACGGCAA | -1.49 ± 0.1 | -1.15 ± 0.09
ACGUAGCAAUAUUACGGCCU | -0.463 ± 0.12 | 0.149 ± 0.13
ACGUAGCAAUAUUACGGGCC | -2.66 ± 0.14 | -0.629 ± 0.12
ACGUAGCAAUAUUACGGGCG | -0.566 ± 0.19 | -1.07 ± 0.19
ACGUAGCAAUAUUACGGUAG | -3.11 ± 0.15 | -2.25 ± 0.2
ACGUAGCAAUAUUACGUAAA | -3.11 ± 0.28 | -0.404 ± 0.19
ACGUAGCAAUAUUACGUAGG | -3.76 ± 0.18 | -1.73 ± 0.13
ACGUAGCAAUAUUACGUCAU | -2.12 ± 0.17 | -2.4 ± 0.3
ACGUAGCAAUAUUACGUUAA | -3.53 ± 0.25 | -2.58 ± 0.2
ACGUAGCAAUAUUACGUUAC | -3.3 ± 0.23 | -2.83 ± 0.26
ACGUAGCAAUAUUACGUUCA | -2.31 ± 0.13 | -0.777 ± 0.12
ACUAAGCAAUAUUACGAAGA | -1.65 ± 0.17 | -1.29 ± 0.18
ACUAAGCAAUAUUACGACAU | -0.431 ± 0.011 | -0.0773 ± 0.032
ACUAAGCAAUAUUACGAGCU | -0.626 ± 0.079 | -0.478 ± 0.087
ACUAAGCAAUAUUACGAUUC | -2.12 ± 0.091 | -0.397 ± 0.11
ACUAAGCAAUAUUACGCACU | -0.0279 ± 0.082 | -0.417 ± 0.08
ACUAAGCAAUAUUACGCUGC | -2.57 ± 0.15 | -2.17 ± 0.14
ACUAAGCAAUAUUACGCUGG | -2.82 ± 0.19 | -2.93 ± 0.31

Sequence | self-splicing fitness (ln) (30 °C) | self-splicing fitness (ln) (37 °C)
ACUAAGCAAUAUUACGCUUA | -2.54 ± 0.25 | -2.83 ± 0.32
ACUAAGCAAUAUUACGUCAC | -3.64 ± 0.19 | -2.91 ± 0.27
ACUAAGCAAUAUUACGUCCC | -1.43 ± 0.22 | -1.07 ± 0.32
ACUAAGCAAUAUUACGUCGU | -3.51 ± 0.17 | -1.16 ± 0.12
ACUAAGCAAUAUUACGUGAG | -0.615 ± 0.057 | -0.636 ± 0.076
ACUAAGCAAUAUUACGUGGG | -2.98 ± 0.14 | -2.81 ± 0.14
ACUAAGCAAUAUUACGUGUG | -2.18 ± 0.07 | -1.06 ± 0.076
ACUAAGCAAUAUUACGUGUU | -3.63 ± 0.1 | -2.2 ± 0.098
ACUAAGCAAUAUUACGUUGG | -2.95 ± 0.12 | -1.73 ± 0.11
ACUCAGCAAUAUUACGACAU | -0.385 ± 0.011 | 0.0786 ± 0.032
ACUCAGCAAUAUUACGACUU | -0.301 ± 0.054 | 0.0543 ± 0.073
ACUCAGCAAUAUUACGAGGA | -1.67 ± 0.11 | -0.591 ± 0.095
ACUCAGCAAUAUUACGAGUU | -4.72 ± 0.21 | -2.36 ± 0.17
ACUCAGCAAUAUUACGAUUA | -0.552 ± 0.065 | -0.431 ± 0.067
ACUCAGCAAUAUUACGCAUG | -2.09 ± 0.15 | -2.23 ± 0.15
ACUCAGCAAUAUUACGCCCA | -1.42 ± 0.13 | -0.482 ± 0.15
ACUCAGCAAUAUUACGCCUC | -0.758 ± 0.095 | -1.13 ± 0.13
ACUCAGCAAUAUUACGGACA | -1.02 ± 0.1 | -1.06 ± 0.12
ACUCAGCAAUAUUACGGACC | -0.551 ± 0.13 | 0.137 ± 0.14
ACUCAGCAAUAUUACGGAGU | -2.78 ± 0.11 | -2.7 ± 0.18
ACUCAGCAAUAUUACGGAUC | -1.46 ± 0.1 | -0.352 ± 0.11
ACUCAGCAAUAUUACGGCAC | -1.24 ± 0.17 | -0.799 ± 0.25
ACUCAGCAAUAUUACGGCGA | -1.41 ± 0.1 | -0.93 ± 0.12
ACUCAGCAAUAUUACGUGAG | -1.55 ± 0.062 | -0.663 ± 0.082
